In article doi:10.1101/2022.12.01.518327 (bioRxiv, 2022):
Numbering of substitutions follows the chain as printed. Names and notes keep the numbering of the source. One block for each binder: values may come before it.

Assays:
[1] = biological target: T1, human LEP-R extracellular domain (hLEP-RECD), glycosylated (human, UniProt P48357 22-839); assay: SEC-MALLS
T1 sequence (looked up): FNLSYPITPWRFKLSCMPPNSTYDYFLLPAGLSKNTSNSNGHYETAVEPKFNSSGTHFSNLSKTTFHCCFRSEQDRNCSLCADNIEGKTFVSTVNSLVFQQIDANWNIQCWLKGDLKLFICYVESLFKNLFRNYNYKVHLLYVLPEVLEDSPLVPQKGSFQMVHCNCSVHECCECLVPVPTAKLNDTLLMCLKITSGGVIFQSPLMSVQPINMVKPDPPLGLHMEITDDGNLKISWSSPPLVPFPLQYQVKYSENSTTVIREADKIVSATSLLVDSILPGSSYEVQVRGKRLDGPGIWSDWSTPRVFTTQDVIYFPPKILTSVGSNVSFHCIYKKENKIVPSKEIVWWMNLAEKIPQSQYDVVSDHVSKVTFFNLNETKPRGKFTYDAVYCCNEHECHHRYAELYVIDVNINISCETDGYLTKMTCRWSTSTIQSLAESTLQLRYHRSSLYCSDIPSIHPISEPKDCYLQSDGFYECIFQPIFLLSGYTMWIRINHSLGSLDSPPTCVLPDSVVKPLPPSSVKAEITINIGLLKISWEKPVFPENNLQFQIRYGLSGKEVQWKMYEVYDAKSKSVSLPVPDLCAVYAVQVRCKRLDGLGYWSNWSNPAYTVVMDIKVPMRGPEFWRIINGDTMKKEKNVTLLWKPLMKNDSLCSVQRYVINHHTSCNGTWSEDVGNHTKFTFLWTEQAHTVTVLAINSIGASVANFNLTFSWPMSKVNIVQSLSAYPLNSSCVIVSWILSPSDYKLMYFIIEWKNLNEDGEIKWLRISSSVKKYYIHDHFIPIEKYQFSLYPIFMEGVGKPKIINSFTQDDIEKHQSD

[2] = biological target: T2, mouse LEP-R Ig-CRH2 fragment, residues 328-633, C602S (mouse, UniProt P48356 328-633, C602S); assay: SEC-MALLS
T2 sequence (looked up): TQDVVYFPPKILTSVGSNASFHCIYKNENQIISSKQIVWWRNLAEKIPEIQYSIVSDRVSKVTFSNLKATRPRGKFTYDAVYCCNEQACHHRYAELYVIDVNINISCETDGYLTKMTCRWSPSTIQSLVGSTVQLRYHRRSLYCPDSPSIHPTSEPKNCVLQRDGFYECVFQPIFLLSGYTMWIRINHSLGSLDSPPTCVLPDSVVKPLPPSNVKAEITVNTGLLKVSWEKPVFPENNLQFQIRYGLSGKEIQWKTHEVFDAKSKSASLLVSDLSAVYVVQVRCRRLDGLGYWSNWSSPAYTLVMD

[3] = biological target: T3, mouse LEP-R extracellular domain (mLEP-RECD) (mouse, UniProt P48356 22-839); assay: SEC-MALLS + AUC
T3 sequence (looked up): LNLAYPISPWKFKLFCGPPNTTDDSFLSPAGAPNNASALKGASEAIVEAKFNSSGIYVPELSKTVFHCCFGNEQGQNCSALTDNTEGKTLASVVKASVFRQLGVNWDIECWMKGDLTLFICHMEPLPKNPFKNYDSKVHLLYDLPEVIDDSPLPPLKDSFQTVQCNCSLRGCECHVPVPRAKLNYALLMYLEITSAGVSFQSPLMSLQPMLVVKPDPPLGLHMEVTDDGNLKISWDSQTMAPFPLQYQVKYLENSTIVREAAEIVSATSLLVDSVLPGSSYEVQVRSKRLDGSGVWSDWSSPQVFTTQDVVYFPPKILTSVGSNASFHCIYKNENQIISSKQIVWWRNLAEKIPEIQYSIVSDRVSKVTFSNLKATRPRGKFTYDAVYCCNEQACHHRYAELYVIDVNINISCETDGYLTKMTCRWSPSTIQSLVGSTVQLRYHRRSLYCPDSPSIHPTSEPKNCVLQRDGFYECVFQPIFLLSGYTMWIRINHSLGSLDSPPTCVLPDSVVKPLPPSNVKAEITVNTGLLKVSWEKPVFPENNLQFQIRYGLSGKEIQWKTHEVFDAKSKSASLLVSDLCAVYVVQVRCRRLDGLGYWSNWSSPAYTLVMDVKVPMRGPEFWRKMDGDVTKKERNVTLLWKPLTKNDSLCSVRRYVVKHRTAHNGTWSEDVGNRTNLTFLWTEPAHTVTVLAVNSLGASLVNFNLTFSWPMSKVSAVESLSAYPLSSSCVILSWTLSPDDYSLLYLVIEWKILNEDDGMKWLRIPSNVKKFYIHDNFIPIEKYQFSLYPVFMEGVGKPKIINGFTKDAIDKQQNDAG

[4] = biological target: T3, mouse LEP-R extracellular domain …; assay: cryo-EM structure
[5] = biological target: T3, mouse LEP-R extracellular domain …; assay: BLI
[6] = biological target: T2, mouse LEP-R Ig-CRH2 fragment, residues …; assay: crystal structure
[7] = biological target: T3, mouse LEP-R extracellular domain …; assay: SEC-MALLS

B1: mouse Leptin (mLeptin), wild type, as used in SEC-MALLS, AUC, BLI (in solution) and on cells (ligand, UniProt P41160 22-167, looked up)
chain: VPIQKVQDDTKTLIKTIVTRINDISHTQSVSAKQRVTGLDFIPGLHPILSLSKMDQTLAVYQQVLTSLPSQNVLQIANDLENLRDLLHLLAFSKSCSLPQTSGLQKPESLDGVLEASLYSTEVVALSRLQGSLQDILQQLDVSPEC
- binding result [1]: binds
- binding result [2]: binds
- binding result [3]: binds

B2: mouse Leptin refolded from E. coli, N-terminal His-tag removed with TEV protease (ligand, UniProt P41160 22-167, looked up)
chain: B1 chain
- binding result [4]: binds

B4: tag-less mouse Leptin refolded from E. coli inclusion bodies (ligand, UniProt P41160 22-167, looked up)
chain: B1 chain
- binding result [6]: binds

B5: mouse Leptin a2 antagonist (60LDFI63/AAAA) (ligand, UniProt P41160 22-167, looked up)
chain: B1 chain with L39A, D40A, F41A, I42A
- stoichiometry N [3]: 1

Now from value to binder:

- binding result [5]: binds
B3: in vitro biotinylated mouse Leptin (ligand, UniProt P41160 22-167, looked up)
chain: B1 chain
modifications: biotin (NHS-PEG4-biotin, in vitro)

- stoichiometry N [3]: 1
B6: Leptin a1 antagonist (141ST142/AA), as used with mLEP-RECD (ligand, UniProt P41160 22-167, looked up)
chain: B1 chain with S120A, T121A

- binding result [7]: binds
B7: murinized human Leptin I85V/M89L/G132D/G139L (ligand, UniProt P41159 22-167, looked up)
chain: VPIQKVQDDTKTLIKTIVTRINDISHTQSVSSKQKVTGLDFIPGLHPILTLSKMDQTLAVYQQVLTSLPSRNVIQISNDLENLRDLLHVLAFSKSCHLPWASGLETLDSLDGVLEASLYSTEVVALSRLQGSLQDMLWQLDLSPGC
